We go through six sequences from the DeepSol protein solubility set.

This data set is described as follows: soluble on expression in E. coli; label from the status in PepcDB or PDB records.
As to “AHHHHHHGSFRLRDFEYYNRTVFLRVDLNSPMSNGKIISDARFRAVLPTIKYLIESGAKVVVGTHQGKPYSEEYSTTEEHARILSELLNMHVEYVEDIFGKYARERIKAMKPGEVIVLENLRFSAEEVKNATIEECEKTFFVRKLSQVIDLVVNDAFAAAHRSQPSLVGFARIKPMIMGFLMEKEVDALTKAYESEEKPRVYVLGGAKVDDSLKVAENVLRKEKADLILTGGLVGQLFTLAKGFDLGRENIKFLEKKGILKYVDWAEKILDEFYPYVRTPVDFAIDFKGERVEIDLLSDEKRLFDEYPILDIGSRTVEKYREILLKARIIVANGPMGVFEREEFAVGTIGVFKAIGESPAFSVIGGGHSIASIYKYNITGISHISTGGGAMLTFFAGEKLPVLEALKISYEKFSNLLS”, the “soluble on expression in E. coli” value was “soluble”.

As to “MAHHHHHHMLNVLCDIKRYNGFDYYKCPRTILKKTCNFVKRENVADSIFIGNEIEFFIFDKVNFGLDDYDSYLKVYDREAFSCKNGGSGGSAVGSGSHDTTAGVACIACAGHVPPNDDSKKVKKKCGYFATDPYDTSNMIKLRICRILNSLNVHVQKYHHEVSTSQHEISLKYFDAVKNADNLIITKQVIKSTVHNFNRTATFMPKPLVSDNGSGLHCNISLWKDNKNIFFADDPSTFFLSKEAFYFMNGIIKHAKALQAFCNSTMNSYKRLVPGFETCQKLFYSFGSRNAVIRLSMINYSNPSEKRIEFRLPDYANSPHLVLAAIILAGYDGIKSKEQPLVPFESKDNNFFISSIFSNYVENTQNFKTLTHALEGYDTIHDVKKSPEFVNFFTCKEPESICFSLEESLDALEKDHAFLTVDGIFTEVRFVGKCGEAPNTVDTYLPTYPCVLPFVLPICLPHLFSPFFPTAGSH”, the “soluble on expression in E. coli” value is listed as “not soluble”.

Turning to “MSTAEQIATLENRINELELENKRLHETVAYLTRKLYGRSSEKTSALSVGQVSLFDEAEVYAVPQAPEPDLKEVQGYIRRKYKGQRTDLLKDIPHDKRLCTLAEEDRYCEACGTDLVSVGKEFIRTEIEFIPAKIRVIDYYRETFECRTCRKNGEPYMEKSPMPYPVIQHSMASPSTVAWIMHQKFVNHLPLYRQENEWKMLGVNLKRETMSNWILAAARDWLMPLVDLMHKKLLQEKYLHADETTVQVLNEEGRSNTTNSYMWVYSSGKYCKKQIRLFQYQPGRNGKYPQEFLKGFSGFLHTDAYSGYKKVPEITRCMCWTHLRRYFRDALPKDTQSPEATIPSQGIRFCNKLFEIEETLEKLTQEQRRLERLKQETPVLEAFWSWVDSVKDKVLPKSKIGEAIQYALNNKEDFMNYLLDGNCSISNNLSENSIRPFTLGRKNWLFSGSPRGADASAAVYSIVESAKANDINPYKYLYYIFSELPGVQFGQNPEFLEDYLPWSPDVQAACK”, the “soluble on expression in E. coli” value is given as “soluble”.

“MTNTTMQPNRLRIALQKKGRLSQDCAILLKQCGVKINWNEQRLIAYAENLPIEILRVRDDDIPGLIFDGVVDLGIIGENVLEEEELGRRAANETVTYKKLRQLDFGDCRLSLAVDRDCHYENVKDLANRRIATSYPHLLKRYMNENGVSFKSCLLNGSVEVAPSAGIAYAICDLVSSGATLEANGLKEVDVIYRSKACLIQRAEPLESTKQALVDKLLTRIQGVQQAAESKYIMLHAPKEKLEKITALLPGVENPTILPLASDTTRVAMHVVSQENLFWETMEQLKEAGASSILVLPIEKMMELEHHHHHH”: the “soluble on expression in E. coli” value is on record as “soluble”.

Turning to “MWLFEESAVGFCSNSGVIDNKHAGYTGTGFIDTENAVGASIVWSLSAASAKTYTAQIRFGNGGTSARRATVVVNDSQIKTLDFPTNSNWTQWQTVNVDIPLKAGTNSIKLVAETADGLANIDSIRVTGNGITPAACPLEHHHHHH”, the “soluble on expression in E. coli” value is on record as “soluble”.

Turning to “MGSDKIHHHHHHMSDTHIGAKSLTIEEREQDYYDTFQEAVEIAIDEKVDFIIHSGDLFDTWIPGNRSMKVFRDAMMKLNDRQIPVFYVFGDHDRPRRNSESAAGIFDFLGLHILGRDEFAGIEREFSGMKVFIGGISNMKGYLRNQLKEEYKKAESASTGYKNSILISHQALDPIFIPEQCEAKVNDLPMNYSYIAMGHLHDFVEREIGPLLSYPGSTELKSDREINGLLKMGKGINVIDLDNGVASLHRVKLKKVRYQFKVESDPENYLEEIKSILDKYANAIGEKKPIVNLIINGQISMEEVYEDLKKINGAIFNRPQILKIVDMPNVPSGSSELREYFQAFLKDQKLTDLAMKVFQHTADGDKEAIIREAAGEAIDN”, the “soluble on expression in E. coli” value is “not soluble”.
